Measurements from patent US20140377287A1 (published 2014).

T1: human Trop-2 (human, UniProt P09758 27-323)
T1 construct: whole, on cells; Type-I transmembrane glycoprotein; also called EGP-1; epithelial glycoprotein-1
T1 sequence (looked up): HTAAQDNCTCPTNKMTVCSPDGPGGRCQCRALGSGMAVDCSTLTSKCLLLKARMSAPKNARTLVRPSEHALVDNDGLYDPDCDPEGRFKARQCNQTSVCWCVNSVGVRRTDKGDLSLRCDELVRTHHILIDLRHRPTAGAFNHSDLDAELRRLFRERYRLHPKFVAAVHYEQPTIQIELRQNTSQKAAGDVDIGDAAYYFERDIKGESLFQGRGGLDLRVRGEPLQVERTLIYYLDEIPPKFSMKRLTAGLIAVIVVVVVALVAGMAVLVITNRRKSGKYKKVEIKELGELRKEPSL


Experiments:
[1] = target: T1, human Trop-2; experiment: cell binding assay on Trop-2-expressing cells (cell line not stated)
[2] = target: T1, human Trop-2; experiment: cell binding on NCI-N87 cells, anti-mouse-HRP secondary, luminescence, 0.03 to 66 nM, 4 C

| Kd [1] [nM] | Kd [2] [nM] | Molecule |
| --- | --- | --- |
| 1.2 |  | hRS7-CL2-SN-38 (antibody) |
| 1.2 |  | hRS7-CL2A-SN-38 (antibody) |
|  | 0.57 | murine RS7 (antibody, V domains shown) VH: VKLQESGPELKKPGETVKISCKASGYTFTNYGMNWVKQAPGKGLKWMGWINTYTGEPTYTDDFKGRFAFSLETSATTAYLQINNLKSEDMATYFCARGGFGSSYWYFDVWGQGTTVTVSS VL: DIQLTQSHKFMSTSVGDRVSITCKASQDVSIAVAWYQQKPGQSPKLLIYSASYRYTGVPDRFTGSGSGTDFTFTISSVQAEDLAVYYCQQHYITPLTFGAGTKLELK |
